Publication PMC11282193, “Mst1-mediated phosphorylation of FoxO1 and C/EBP-β stimulates cell-protective mechanisms in cardiomyocytes”

How the values were obtained:
[1] = biological target: FoxO1 (UniProt G3V7R4); assay: C/EBP-β IP, FoxO1 immunoblot; details: reference: C/EBP-β-WT; sites T299
[2] = biological target: C/EBP-β (UniProt P21272); assay: co-immunoprecipitation from cardiomyocytes; details: reference: FoxO1(S209A); sites S215,S218,T228,S232,S243
[3] = biological target: FoxO1-WT (mouse, UniProt Q9R1E0 1-652); assay: pull-down; without Mst1; EMSA: 20 mM Tris-HCl pH 8.0, 40 mM KCl, 5% glycerol, 0.4 mM DTT, 0.2 mM EDTA, 2 mM MgCl2, 1 mg/ml BSA, 20 ng poly(dI-dC), on ice 15 min, 50 ng protein; pull-down (1x buffer): 10 mM HEPES pH 8, 50 mM KCl, 2.5 mM MgCl2, 1 mM EDTA, 1 mM DTT, 0.1% IGEPAL, 4 C 2 h; details: protein: recombinant; tags: GST removed by PreScission (general method); label: 5' biotin on sense strand; blunt
Sequence of FoxO1-WT (Q9R1E0 whole entry): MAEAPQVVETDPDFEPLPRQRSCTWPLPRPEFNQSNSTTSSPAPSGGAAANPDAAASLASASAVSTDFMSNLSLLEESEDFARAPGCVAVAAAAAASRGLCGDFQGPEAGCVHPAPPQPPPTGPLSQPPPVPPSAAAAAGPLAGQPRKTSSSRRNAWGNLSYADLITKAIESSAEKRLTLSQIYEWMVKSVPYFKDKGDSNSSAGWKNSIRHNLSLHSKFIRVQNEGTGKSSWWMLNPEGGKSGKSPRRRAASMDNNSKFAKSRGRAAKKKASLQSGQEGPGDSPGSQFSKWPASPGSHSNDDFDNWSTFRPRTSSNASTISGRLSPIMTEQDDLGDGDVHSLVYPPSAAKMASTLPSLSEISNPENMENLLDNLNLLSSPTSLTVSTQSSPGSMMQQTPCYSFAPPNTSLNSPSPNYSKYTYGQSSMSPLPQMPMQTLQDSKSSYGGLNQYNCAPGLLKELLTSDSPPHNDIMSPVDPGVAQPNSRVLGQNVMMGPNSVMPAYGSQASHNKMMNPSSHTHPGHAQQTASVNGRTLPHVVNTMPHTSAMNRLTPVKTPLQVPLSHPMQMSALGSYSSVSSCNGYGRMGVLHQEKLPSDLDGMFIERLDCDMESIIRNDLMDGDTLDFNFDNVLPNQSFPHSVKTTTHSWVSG

Row | Molecule | binding result [3] | further results
1 | C/EBP-β (from UniProt P17676) C/EBP-β-PR (T299A) |  | binding against the reference [1]: weaker
2 | FoxO1 (from UniProt Q9R1E0) FoxO1-PR (six sites to Ala) |  | binding against the reference [2]: lost
3 | Mt-3xDBE (Biotin-FHRE-mutant) (dsDNA) DNA 1: ACTTACCCACGAGTTACCCACGAGTTACCCACCA DNA 2: TGGTGGGTAACTCGTGGGTAACTCGTGGGTAAGT | no binding | 
4 | WT-3xDBE (Biotin-FHRE-wild type) (dsDNA) DNA 1: CCTTGTTTACGGGTTGTTTACGGGTTGTTTACCC DNA 2: GGGTAAACAACCCGTAAACAACCCGTAAACAAGG | binds | 
